Laboratory results: patent publication US20210403578A1 (Stanford University, published 2021)

Biological target: T1, Fz8-CRD (UniProt Q9H461 32-151, limits assumed, fluorescence-conjugated)
T1 construct: domain: CRD; also called Fzd8-CRD; frizzled (Fz8-CRD)
T1 sequence (looked up): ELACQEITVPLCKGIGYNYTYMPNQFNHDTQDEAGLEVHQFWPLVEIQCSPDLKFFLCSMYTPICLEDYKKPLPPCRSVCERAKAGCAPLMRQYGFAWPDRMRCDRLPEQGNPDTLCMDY
Assay: yeast surface display with fluorescence-conjugated Fz8-CRD
From the text: Fz27 was expressed in a construct enabling binding to be confirmed via yeast surface display using fluorescence-conjugated Fz8-CRD.

binding result: no binding
B1: uncharacterized protein Bh1478 from Bacillus halodurans (other)
chain: MDVQRVGKAGLHRVDSKKQQTAAGVSFSEVMGKQRDEKAYERLQALMSKIDDQGKLLSETRTIEELRKYKELVKEFVGDAVELGLRLEERRGFNRRGRTKIYKIVKEVDRKLLDLTDAVLAKEKKGLDILNMVGEIKGLLINIYA
notes: also called 2QUP; wild-type scaffold
